Laboratory results: paper PMC5405865

Experiments:
[1] = target: The RNCs, denoted FLN5+L (with L = 21 to 110); test: co-purification with the RNC, western blot
70S ribosomes = test: NMR titration

Substance | occupancy of the purified RNCs [1] [%] | reduction in resonance intensities with equimolar 70S ribosomes (70S ribosomes) [%]
DnaK (from UniProt P0A6Y8 1-638) (natural protein) | < 1.5 | –
FLN5 Y719E, isolated unfolded variant of FLN5 (from UniProt P13466 646-750) (domain or fragment) | – | 30
FLN5∆12, 12-residue C-terminal truncation of isolated FLN5 (from UniProt P13466 646-738) (domain or fragment) | – | 30
trigger factor (from UniProt P0A850 1-432) (natural protein) | < 1.5 | –
